Results: patent publication US20240270821A1, “GIP/GLP1/GCG TRI-RECEPTOR AGONISTS AND USES THEREOF” (priority 2023, published 2024)
Where a chain is given by its changes, count along the chain named.

B1: Example 35 (peptide)
chain: YXQGTFTSDFSKXLDKKAQXAFIEYLLEGGPSSGEPPPEEG
modifications: not fully specified; Aib, αMeL; acylated Lys; C-terminal amide; synthetic construct; SITE 2: note = 2-Aminoisobutyric Acid; SITE 13: note = alpha-methyl-leucine; SITE 17: note = Lysine is chemically modified through conjugation of the epsilon-amino group of the Lysine side chain with (2-[2-(2-Amino-ethoxy)-ethoxy]-acetyl)-(gamma-Glu)-CO-(CH2) 18-CO2H; SITE 20: n
B2: Example 36 (peptide)
chain: B1 chain with E39T
modifications: C-terminal amide; acylated lysine; synthetic construct; SITE 2: note = 2-Aminoisobutyric Acid; SITE 13: note = alpha-methyl-leucine; SITE 17: note = Lysine is chemically modified through conjugation of the epsilon-amino group of the Lysine side chain with (2-[2-(2-Amino-ethoxy)-ethoxy]-acetyl)-(gamma-Glu)-CO-(CH2) 18-CO2H; SITE 20: n
B3: Example 405 (peptide)
chain: B1 chain with L27A, E28A, E39S, E40G, G41E
modifications: synthetic construct; SITE 2: note = 2-Aminoisobutyric Acid; SITE 13: note = alpha-methyl-leucine; SITE 17: note = Lysine is chemically modified through conjugation of the epsilon-amino group of the Lysine side chain with (epsilon-K)2-(gamma-Glu)-CO-(CH2)18-CO2H; SITE 20: note = 2-Aminoisobutyric Aci
B4: Example 395 (peptide)
chain: YXQGTXTSDYSIXLDKKAQXAFIEYLEEGGPSSGAPPPSEG
modifications: synthetic construct; SITE 2: note = 2-Aminoisobutyric Acid; SITE 6: note = alpha-methyl-L-phenylalanine; SITE 13: note = alpha-methyl-leucine; SITE 17: note = Lysine is chemically modified through conjugation of the epsilon-amino group of the Lysine side chain with (2-[2-(2-Amino-ethoxy)-ethoxy]-ace)
B5: Example 404 (peptide)
chain: B4 chain with K16X, E27L
modifications: synthetic construct; SITE 2: note = 2-Aminoisobutyric Acid; SITE 6: note = alpha-methyl-2-fluoro-L-phenylalanine; SITE 13: note = alpha-methyl-leucine; SITE 16: note = L-ornithine; SITE 17: note = Lysine is chemically modified through conjugation of the epsilon-amino group of the Lysine side chain w
B6: Example 412 (peptide)
chain: B4 chain with X13L, Y25F
modifications: not fully specified; synthetic construct; SITE 2: note = 2-Aminoisobutyric Acid; SITE 6: note = alpha-methyl-2-fluoro-L-phenylalanine; SITE 17: note = Lysine is chemically modified through conjugation of the epsilon-amino group of the Lysine side chain with (2-[2-(2-Amino-ethoxy)-ethoxy]-acetyl)-(gamma-Glu)-CO-(CH2) 16-
B7: Example 411 (peptide)
chain: B4 chain with X13L, Y25X
modifications: synthetic construct; SITE 2: note = 2-Aminoisobutyric Acid; SITE 6: note = alpha-methyl-2-fluoro-L-phenylalanine; SITE 17: note = Lysine is chemically modified through conjugation of the epsilon-amino group of the Lysine side chain with (2-[2-(2-Amino-ethoxy)-ethoxy]-acetyl)-(gamma-Glu)-CO-(CH2) 16-
B8: Example 398 (peptide)
chain: B4 chain with X13L
modifications: not fully specified; synthetic construct; SITE 2: note = 2-Aminoisobutyric Acid; SITE 6: note = alpha-methyl-2-fluoro-L-phenylalanine; SITE 17: note = Lysine is chemically modified through conjugation of the epsilon-amino group of the Lysine side chain with (2-[2-(2-Amino-ethoxy)-ethoxy]-acetyl)-(gamma-Glu)-CO-(CH2) 16-
B9: Example 399 (peptide)
chain: B4 chain with X13L, S39E
modifications: synthetic construct; SITE 2: note = 2-Aminoisobutyric Acid; SITE 6: note = alpha-methyl-2-fluoro-L-phenylalanine; SITE 17: note = Lysine is chemically modified through conjugation of the epsilon-amino group of the Lysine side chain with (2-[2-(2-Amino-ethoxy)-ethoxy]-acetyl)-(gamma-Glu)-CO-(CH2) 16-
B10: Example 389 (peptide)
chain: YXQGTXTSDYXSXLDXKAQXXFIEXLLEGGPSSGEPPPE
modifications: synthetic construct; SITE 2: note = 2-Aminoisobutyric Acid; SITE 6: note = alpha-methyl-L-phenylalanine; SITE 11: note = alpha-methyl-L-serine; SITE 13: note = alpha-methyl-leucine; SITE 16: note = L-ornithine; SITE 17: note = Lysine is chemically modified through conjugation of the epsilon-amino gr
B11: Example 390 (peptide)
chain: B10 chain with X13L
modifications: synthetic construct; SITE 2: note = 2-Aminoisobutyric Acid; SITE 6: note = alpha-methyl-L-phenylalanine; SITE 11: note = alpha-methyl-L-serine; SITE 16: note = L-ornithine; SITE 17: note = Lysine is chemically modified through conjugation of the epsilon-amino group of the Lysine side chain with (2-[
B12: Example 391 (peptide)
chain: B10 chain with S12I, X25Y
modifications: synthetic construct; SITE 2: note = 2-Aminoisobutyric Acid; SITE 6: note = alpha-methyl-L-phenylalanine; SITE 11: note = alpha-methyl-L-serine; SITE 13: note = alpha-methyl-leucine; SITE 16: note = L-ornithine; SITE 17: note = Lysine is chemically modified through conjugation of the epsilon-amino gr
B13: Example 402 (peptide)
chain: B10 chain with S12I, L27E
modifications: synthetic construct; SITE 2: note = 2-Aminoisobutyric Acid; SITE 6: note = alpha-methyl-2-fluoro-L-phenylalanine; SITE 11: note = alpha-methyl-L-serine; SITE 13: note = alpha-methyl-leucine; SITE 16: note = L-ornithine; SITE 17: note = Lysine is chemically modified through conjugation of the epsilon
B14: Example 392 (peptide)
chain: YXQGTXTSDYSILLDKKAQXAFIEYLEEGGPSSGAPPPS
modifications: synthetic construct; SITE 2: note = 2-Aminoisobutyric Acid; SITE 6: note = alpha-methyl-L-phenylalanine; SITE 17: note = Lysine is chemically modified through conjugation of the epsilon-amino group of the Lysine side chain with (2-[2-(2-Amino-ethoxy)-ethoxy]-acetyl)-(gamma-Glu)-CO-(CH2) 16-CO2H; SIT

target: human glucagon receptor (human) (UniProt P47871); experiment: cell-based or functional assay
Sequence (P47871 26-477): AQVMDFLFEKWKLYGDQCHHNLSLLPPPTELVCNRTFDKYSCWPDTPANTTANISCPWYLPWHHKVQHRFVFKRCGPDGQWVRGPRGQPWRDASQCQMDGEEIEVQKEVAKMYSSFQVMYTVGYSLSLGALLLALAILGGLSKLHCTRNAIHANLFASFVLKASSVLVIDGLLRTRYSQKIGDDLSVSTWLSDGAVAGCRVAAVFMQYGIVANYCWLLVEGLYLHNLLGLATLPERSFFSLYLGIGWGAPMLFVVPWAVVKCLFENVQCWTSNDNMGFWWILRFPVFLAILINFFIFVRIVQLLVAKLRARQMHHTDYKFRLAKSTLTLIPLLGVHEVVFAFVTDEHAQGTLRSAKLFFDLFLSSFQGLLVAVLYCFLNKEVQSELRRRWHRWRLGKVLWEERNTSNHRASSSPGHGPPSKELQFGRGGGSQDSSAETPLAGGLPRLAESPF

Point of comparison: B10, Relative cAMP EC50 4.03 nM. Against it:
- B1 — within 1.5-fold, 4.32 nM
- B2 — within 1.5-fold, 4.32 nM
- B3 — 3.8-fold higher, 15.5 nM
- B4 — within 1.5-fold, 5.55 nM
- B5 — within 1.5-fold, 4.1 nM
- B6 — 1.7-fold lower, 2.36 nM
- B7 — within 1.5-fold, 3.94 nM
- B8 — 1.9-fold lower, 2.16 nM
- B9 — 2.7-fold lower, 1.51 nM
- B11 — within 1.5-fold, 3.08 nM
- B12 — within 1.5-fold, 3.04 nM
- B13 — within 1.5-fold, 5.66 nM
- B14 — within 1.5-fold, 3.02 nM

Point of comparison: B2, cAMP Rel EC50 (in the presence of 1% HSA) 1330 nM. Against it:
- B1 — within 1.5-fold, 1390 nM

Point of comparison: B14, cAMP Rel EC50, nM (1% HSA) 611 nM. Against it:
- B3 — 4.1-fold higher, 2530 nM
- B4 — 1.9-fold higher, 1190 nM
- B5 — within 1.5-fold, 735 nM
- B6 — within 1.5-fold, 467 nM
- B7 — 1.9-fold higher, 1170 nM
- B8 — 1.6-fold lower, 375 nM
- B9 — within 1.5-fold, 560 nM
- B10 — within 1.5-fold, 889 nM
- B11 — within 1.5-fold, 549 nM
- B12 — within 1.5-fold, 808 nM
- B13 — 1.7-fold higher, 1030 nM

target: hGLP-1R (Homo sapiens, UniProt P43220); experiment: cell-based or functional assay
Sequence (P43220 24-463): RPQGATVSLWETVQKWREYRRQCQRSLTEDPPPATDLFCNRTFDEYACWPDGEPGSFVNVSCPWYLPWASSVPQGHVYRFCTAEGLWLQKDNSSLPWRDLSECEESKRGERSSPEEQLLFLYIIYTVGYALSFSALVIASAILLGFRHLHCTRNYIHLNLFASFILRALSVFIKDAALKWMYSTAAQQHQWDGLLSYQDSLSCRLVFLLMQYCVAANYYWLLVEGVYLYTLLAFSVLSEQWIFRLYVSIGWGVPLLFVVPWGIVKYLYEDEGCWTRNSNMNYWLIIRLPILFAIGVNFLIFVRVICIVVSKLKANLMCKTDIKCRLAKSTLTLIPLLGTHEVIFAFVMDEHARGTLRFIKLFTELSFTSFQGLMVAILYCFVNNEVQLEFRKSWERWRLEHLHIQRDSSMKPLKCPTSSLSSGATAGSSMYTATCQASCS

Point of comparison: B3, Relative cAMP EC50 1.48 nM. Against it:
- B1 — 2.1-fold higher, 3.05 nM
- B2 — 2.4-fold higher, 3.57 nM
- B4 — 4.2-fold lower, 0.349 nM
- B5 — 6.8-fold lower, 0.217 nM
- B6 — 5.2-fold lower, 0.282 nM
- B7 — 2.1-fold lower, 0.709 nM
- B8 — 8-fold lower, 0.186 nM
- B9 — 4.9-fold lower, 0.302 nM
- B10 — 11-fold lower, 0.134 nM
- B11 — 11-fold lower, 0.134 nM
- B12 — 7.4-fold lower, 0.199 nM
- B13 — 2-fold lower, 0.725 nM
- B14 — 5.8-fold lower, 0.253 nM

Point of comparison: B2, cAMP Rel EC50 (in the presence of 1% HSA) 1360 nM. Against it:
- B1 — within 1.5-fold, 1130 nM

Point of comparison: B3, cAMP Rel EC50, nM (1% HSA) 285 nM. Against it:
- B4 — 8.2-fold lower, 34.7 nM
- B5 — 8.9-fold lower, 32.2 nM
- B6 — 6.2-fold lower, 46 nM
- B7 — 3.5-fold lower, 82.1 nM
- B8 — 6.8-fold lower, 42.2 nM
- B9 — 6.7-fold lower, 42.8 nM
- B10 — 15-fold lower, 18.9 nM
- B11 — 15-fold lower, 19.6 nM
- B12 — 8.3-fold lower, 34.4 nM
- B13 — 3.3-fold lower, 86.6 nM
- B14 — 6.9-fold lower, 41.5 nM

target: T1, human GIP receptor (human) (UniProt P48546); experiment: cell-based or functional assay
T1 sequence (looked up): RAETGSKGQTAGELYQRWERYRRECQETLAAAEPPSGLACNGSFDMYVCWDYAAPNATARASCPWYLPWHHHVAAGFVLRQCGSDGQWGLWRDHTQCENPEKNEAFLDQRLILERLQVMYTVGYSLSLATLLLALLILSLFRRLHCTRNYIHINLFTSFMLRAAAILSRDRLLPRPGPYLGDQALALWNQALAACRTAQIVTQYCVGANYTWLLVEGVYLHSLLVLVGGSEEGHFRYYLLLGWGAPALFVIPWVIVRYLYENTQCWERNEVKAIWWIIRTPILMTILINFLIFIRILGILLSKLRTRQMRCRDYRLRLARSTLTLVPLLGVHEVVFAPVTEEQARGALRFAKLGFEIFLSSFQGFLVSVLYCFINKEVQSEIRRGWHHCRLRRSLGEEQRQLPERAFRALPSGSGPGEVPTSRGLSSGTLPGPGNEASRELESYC

Point of comparison: B1, Relative cAMP EC50 0.55 nM. Against it:
- B2 — within 1.5-fold, 0.482 nM
- B3 — 2-fold lower, 0.28 nM
- B4 — 22-fold lower, 0.0248 nM
- B5 — 54-fold lower, 0.0102 nM
- B6 — 16-fold lower, 0.0351 nM
- B7 — 9.5-fold lower, 0.058 nM
- B8 — 17-fold lower, 0.0318 nM
- B9 — 13-fold lower, 0.0413 nM
- B10 — 16-fold lower, 0.0354 nM
- B11 — 4.5-fold lower, 0.122 nM
- B12 — 18-fold lower, 0.0298 nM
- B13 — 4.5-fold lower, 0.123 nM
- B14 — 9.6-fold lower, 0.0571 nM

Point of comparison: B2, cAMP Rel EC50 (in the presence of 1% HSA) 170 nM. Against it:
- B1 — within 1.5-fold, 194 nM

Point of comparison: B9, cAMP Rel EC50, nM (1% HSA) 19.6 nM. Against it:
- B3 — 1.6-fold higher, 32.1 nM
- B4 — 2.9-fold lower, 6.69 nM
- B5 — 9.7-fold lower, 2.03 nM
- B6 — 1.6-fold lower, 12.5 nM
- B7 — within 1.5-fold, 23.8 nM
- B8 — 1.6-fold lower, 12.4 nM
- B10 — within 1.5-fold, 18.3 nM
- B11 — 1.9-fold higher, 37.8 nM
- B12 — 1.7-fold lower, 11.5 nM
- B13 — 2.3-fold higher, 44.9 nM
- B14 — within 1.5-fold, 28.7 nM
